Patent publication US20080050387A1, “Non-Androgen Dependent Roles for Androgen Receptor and Non-Androgen Related Inhibitors of Androgen Receptor” (priority 2003, published 2008)

B1: ARA678-140: truncated ARA67 fragment, residues 8-140 (protein)
chain: WIPETLYNTAISAVVDNYIRSRRDIRSLPENIQFDVYYKLYQQGRLCQLGSEFCELEVFAKVLRALDKRHLLHHCFQALMDHGVKVASVLAYSFSRRCSYIAESDAAVKEKAIQVGFVLGGFLSDAGWYSDAE
B2: ARA671-280: N-terminal region of ARA67, residues 1-280 (protein)
chain: MAAVELEWIPETLYNTAISAVVDNYIRSRRDIRSLPENIQFDVYYKLYQQGRLCQLGSEFCELEVFAKVLRALDKRHLLHHCFQALMDHGVKVASVLAYSFSRRCSYIAESDAAVKEKAIQVGFVLGGFLSDAGWYSDAEKVFLSCLQLCTLHDEMLHWFRAVECCVRLLHVRNGNCKYHLGEETFKLAQTYMDKLSKHGQQANKAALYGELCALLFAKSHYDEAYKWCIEAMKEITAGLPVKVVVDVLRQASKACVVKREFKKAEQLIKHAVYLARDHF
B3: ARA671-550: ARA67 lacking the PEST sequence (protein, UniProt Q92624 1-550, looked up, fragment)
chain: MAAVELEWIPETLYNTAISAVVDNYIRSRRDIRSLPENIQFDVYYKLYQQGRLCQLGSEFCELEVFAKVLRALDKRHLLHHCFQALMDHGVKVASVLAYSFSRRCSYIAESDAAVKEKAIQVGFVLGGFLSDAGWYSDAEKVFLSCLQLCTLHDEMLHWFRAVECCVRLLHVRNGNCKYHLGEETFKLAQTYMDKLSKHGQQANKAALYGELCALLFAKSHYDEAYKWCIEAMKEITAGLPVKVVVDVLRQASKACVVKREFKKAEQLIKHAVYLARDHFGSKHPKYSDTLLDYGFYLLNVDNICQSVAIYQAALDIRQSVFGGKNIHVATAHEDLAYSSYVHQYSSGKFDNALFHAERAIGIITHILPEDHLLLASSKRVKALILEEIAIDCHNKETEQRLLQEAHDLHLSSLQLAKKAFGEFNVQTAKHYGNLGRLYQSMRKFKEAEEMHIKAIQIKEQLLGQEDYEVALSVGHLASLYNYDMNQYENAEKLYLRSIAIGKKLFGEGYSGLEYDYRGLIKLYNSIGNYEKVFEYHNVLSNWNRLRDRQ
B4: ARA67281-585: C-terminal region of ARA67, residues 281-585 (protein)
chain: GSKHPKYSDTLLDYGFYLLNVDNICQSVAIYQAALDIRQSVFGGKNIHVATAHEDLAYSSYVHQYSSGKFDNALFHAERAIGIITHILPEDHLLLASSKRVKALILEEIAIDCHNKETEQRLLQEAHDLHLSSLQLAKKAFGEFNVQTAKHYGNLGRLYQSMRKFKEAEEMHIKAIQIKEQLLGQEDYEVALSVGHLASLYNYDMNQYENAEKLYLRSIAIGKKLFGEGYSGLEYDYRGLIKLYNSIGNYEKVFEYHNVLSNWNRLRDRQYSVTDALEDVSTSPQSTEEVVQSFLISQNVEGPSC
B5: GST-ARA67170-338: GST-fused ARA67 fragment 170-338, which contains the LXXLL motif (protein)
chain: LHVRNGNCKYHLGEETFKLAQTYMDKLSKHGQQANKAALYGELCALLFAKSHYDEAYKWCIEAMKEITAGLPVKVVVDVLRQASKACVVKREFKKAEQLIKHAVYLARDHFGSKHPKYSDTLLDYGFYLLNVDNICQSVAIYQAALDIRQSVFGGKNIHVATAHEDLAY

Assays:
AR (ARN, ARDBD, ARLBD) = test: GST pull-down assay ARA67 / AR; format: binding, human
Description: GST-ARN, GST-ARA67 fusion proteins, and GST control protein were expressed in BL21 (DE3)pLysS bacteria strain (Stratagene) and purified with glutathione-Sepharose beads as instructed by the manufacturer (Amersham Pharmacia). In vitro [^35S]methionine-labeled AR, ARN, AR DBD, AR LBD and ARA67 proteins were generated using TNT-coupled Reticulocyte Lysate Systems (Promega). For in vitro interaction, mixtures of glutathione beads bound GST fusion proteins and 5 μl [^35S]methionine-labeled input proteins in 100 μl interaction buffer (20 mM Tris/pH8.0, 60 mM NaCl, 6 mM MgCl2, 1 mM EDTA, 0.05% Nonidet P-40, 1 mM DTT, 8% glycerol, 1 mM PMSF) were incubated in the presence or absence of 10 μM dihydrotestosterone (DHT) on a rotating disk at 4° C. for 2 h. After washing with NETN buffer (20 mM Tris/pH8.0, 100 mM NaCl, 6 mM MgCl2, 1 mM EDTA, 0.5% Nonidet P-40, 1 mM DTT, 8% glycerol, 1 mM PMSF) four times, the bound proteins were separated on 8-13% SDS-PAGE and visualized by autoradiography.

AR = AR transactivation reporter gene assay in H1299 cells with ARA67; format: cell-based, human; settings: H1299 cells, 600 ng construct, MMTV-luc
Chain of AR (P10275 with tags, fused parts or gaps DEL79-80/DUP473-473): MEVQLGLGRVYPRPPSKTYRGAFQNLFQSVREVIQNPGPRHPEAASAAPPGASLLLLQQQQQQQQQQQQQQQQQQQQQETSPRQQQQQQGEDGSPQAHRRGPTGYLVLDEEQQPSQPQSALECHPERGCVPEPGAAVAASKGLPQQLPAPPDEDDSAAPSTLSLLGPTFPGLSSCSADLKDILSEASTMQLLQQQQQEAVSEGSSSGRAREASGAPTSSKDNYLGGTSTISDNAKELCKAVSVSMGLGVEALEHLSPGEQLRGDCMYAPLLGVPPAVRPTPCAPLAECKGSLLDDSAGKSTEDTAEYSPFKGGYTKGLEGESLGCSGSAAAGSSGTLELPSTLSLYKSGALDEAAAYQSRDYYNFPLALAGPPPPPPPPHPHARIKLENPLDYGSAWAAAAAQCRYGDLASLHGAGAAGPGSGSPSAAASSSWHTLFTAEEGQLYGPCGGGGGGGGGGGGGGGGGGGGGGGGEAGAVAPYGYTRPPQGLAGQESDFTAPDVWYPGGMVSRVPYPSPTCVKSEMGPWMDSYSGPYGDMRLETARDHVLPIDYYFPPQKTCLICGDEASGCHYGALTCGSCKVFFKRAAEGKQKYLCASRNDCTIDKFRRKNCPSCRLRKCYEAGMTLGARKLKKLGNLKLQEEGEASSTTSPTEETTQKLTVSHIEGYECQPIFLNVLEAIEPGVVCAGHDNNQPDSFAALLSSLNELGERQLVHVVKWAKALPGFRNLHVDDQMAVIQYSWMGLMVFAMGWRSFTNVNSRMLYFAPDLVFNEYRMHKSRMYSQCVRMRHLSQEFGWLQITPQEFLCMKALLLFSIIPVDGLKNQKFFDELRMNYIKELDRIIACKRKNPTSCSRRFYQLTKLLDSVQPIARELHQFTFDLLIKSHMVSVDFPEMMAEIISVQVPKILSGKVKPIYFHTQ
Description: H1299 and COS-1 cells were maintained in Dulbecco's modified Eagle's medium (DMEM) (Life Technologies, Inc.) supplemented with 10% heat inactivated fetal bovine serum (FBS). LNCap cells were maintained in RPMI 1640 supplemented with […]. All media contain 100 units penicillin, 100 μg/ml streptomycin and 2 mM L-glutamine. Cells were seeded to a density of 50-60% confluency for transfection. In transfections where H1299 and COS-1 cells were used, the calcium phosphate precipitation method was used as described (Pan H J, et al. 1999. Endocrine 11:321-327) unless otherwise noted. […] In other reporter gene assays, where ligand treatment was required, cell culture media were changed to DMEM containing 10% charcoal-dextran-stripped FBS (CD-FBS) 2 h before transfection. After 16-18 h transfection, cells were treated with medium containing either vehicle or ligands for another 20-24 h and then cells were harvested. With LNCap cells transfection, the cells were treated with fresh RPMI 1640 containing 10% CD-FBS before transfection with SuperFect performed according to the manufacturer's protocol (Qiagen). After transfection, cells were allowed to recover in fresh RPMI 1640 containing 10% CD-FBS for 8-12 h, and then treated with either vehicle or ligands for another 20-24 h before harvesting. Each experiment was repeated at least three times.

| Molecule | interaction with ARN (AR (ARN, ARDBD, ARLBD)) | suppression of AR transactivation by ARA67 fragments (AR) | interaction with AR LBD (AR (ARN, ARDBD, ARLBD)) |
| --- | --- | --- | --- |
| B1 | slightly stronger interaction | – | – |
| B2 | relatively weak | better suppressor than ARA67281-550 and ARA67281-585 | – |
| B3 | – | didn't show a stronger suppression effect than full length ARA67 | – |
| B4 | relatively weak | could also suppress AR transactivation | – |
| B5 | very weak interaction | – | no interaction |
